Laboratory results published in publication PMC3873549, “Plant Acyl-CoA:Lysophosphatidylcholine Acyltransferases (LPCATs) Have Different Specificities in Their Forward and Reverse Reactions” (The Journal of Biological Chemistry, 2013).

Substrate: CCCCCCCC/C=C\CCCCCCCC(=O)SCCNC(=O)CCNC(=O)[C@H](O)C(C)(C)COP(=O)(O)OP(=O)(O)OC[C@H]1O[C@@H](n2cnc3c(N)ncnc32)[C@H](O)[C@@H]1OP(=O)(O)O
Assay: cells, lysate or membranes
Format: cell-based, Arabidopsis thaliana
Details: acyl acceptor sn-1-18:1-LPC, pH 7.2, 30 °C, labelled compound

B1: AtLPCAT1 (Arabidopsis thaliana) (protein)
chain: MDMSSMAGSIGVSVAVLRFLLCFVATIPVSFACRIVPSRLGKHLYAAASGAFLSYLSFGFSSNLHFLVPMTIGYASMAIYRPKCGIITFFLGFAYLIGCHVFYMSGDAWKEGGIDSTGALMVLTLKVISCSMNYNDGMLKEEGLREAQKKNRLIQMPSLIEYFGYCLCCGSHFAGPVYEMKDYLEWTEGKGIWDTTEKRKKPSPYGATIRAILQAAICMALYLYLVPQYPLTRFTEPVYQEWGFLRKFSYQYMAGFTARWKYYFIWSISEASIIISGLGFSGWTDDASPKPKWDRAKNVDILGVELAKSAVQIPLVWNIQVSTWLRHYVYERLVQNGKKAGFFQLLATQTVSAVWHGLYPGYMMFFVQSALMIAGSRVIYRWQQAISPKMAMLRNIMVFINFLYTVLVLNYSAVGFMVLSLHETLTAYGSVYYIGTIIPVGLILLSYVVPAKPSRPKPRKEE
  Km: 18 µM
